Source: the supplement of paper PMC9732359
± gives the uncertainty stated by the source.

Assay: protein stability index of a GFP-peptide fusion (yeast GPS) (PSI 1-4); higher = more stable; sorted into four equal gates, so the index is relative within each strain
Method in brief: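 Plasmids in a pooled yeast library fused tiled 17-residue yeast protein peptides downstream of GFP and also expressed Cherry. Mid-log cultures grown without leucine were sorted into four equal gates by GFP/Cherry fluorescence ratio. Each gate's plasmids were PCR-amplified and Illumina-sequenced, and reads were matched to strains by barcodes. The protein stability index is derived by multiplying each gate's read frequency by its gate number and summing the results.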

Row | Sequence | protein stability index (doa10∆) | protein stability index (pdr5∆) | protein stability index (san1∆) | protein stability index (ubr1∆)
1 | SVKGKVVIDAFRLIDTG [RPN11] | 1.83 ± 0.12 | 2.38 ± 0.099 | 1.92 ± 0.15 | 1.79 ± 0.061
2 | EIEPILMEIHNILKVDS [RGR1] | 1.74 ± 0.098 | 1.84 ± 0.1 | 1.98 ± 0.15 | 1.76 ± 0.065
3 | TFLPPLLLKLASPHASV [ECM29] | 1.63 ± 0.039 | 1.8 ± 0.04 | 1.66 ± 0.061 | 1.41 ± 0.027
4 | DTETFDTVNSALENDVA [YML103C/NUP188] | – | 3.63 ± 0.23 | 3.16 ± 0.2 | 2.69 ± 0.17
5 | QTKEIKTERVEDQKVVD [RPL6B] | 3.55 ± 0.088 | 3.33 ± 0.11 | 3.48 ± 0.068 | 3.53 ± 0.076
6 | DTDKLPIKNRTSKSFSK [SIN4] | 2.83 ± 0.1 | 2.85 ± 0.067 | 2.61 ± 0.11 | 2.92 ± 0.068
7 | KLWAEIIVKILYYRPHI [GRR1] | 1.4 ± 0.064 | 2.02 ± 0.071 | 1.19 ± 0.15 | 1.46 ± 0.073
8 | CVNLSLFDARFERKNPH [SRB8] | 3.2 ± 0.089 | 3.16 ± 0.061 | 3.34 ± 0.083 | 3.17 ± 0.053
9 | HKLVFVVRIKGINKIPP [RPL7A] | 1.4 ± 0.038 | 1.57 ± 0.046 | 1.52 ± 0.094 | 1.64 ± 0.053
10 | LFAGYTDNVIRVWQVMT [ASC1] | 1.61 ± 0.064 | 2.07 ± 0.057 | 1.86 ± 0.099 | 2.06 ± 0.066
11 | LHKRQQFSESTHNDIDS [YJL039C/NUP192] | 2.9 ± 0.081 | 3.03 ± 0.091 | 2.78 ± 0.051 | 3.03 ± 0.05
12 | IECFKPGDIVRAQVLSL [CSL4] | 2.25 ± 0.15 | 2.04 ± 0.17 | 2.04 ± 0.2 | 2.39 ± 0.16
13 | DAENEWNVEKFKKDFEV [RPC40] | 1.39 ± 0.12 | 1.7 ± 0.21 | 1.85 ± 0.16 | 1.82 ± 0.11
14 | PADRPQGRRNSRNFSTR [SIR4] | 3.02 ± 0.11 | 3.21 ± 0.074 | 3.1 ± 0.071 | 3.15 ± 0.074
15 | KKHKQKKVLEIDFFKTD [BRN1] | 2.54 ± 0.037 | 2.67 ± 0.043 | 2.83 ± 0.039 | 2.59 ± 0.035
16 | QLKHTKLALAENDTNMN [SMC4] | 3.13 ± 0.079 | 3.12 ± 0.097 | 3.25 ± 0.07 | 3.17 ± 0.048
17 | NAQQTFHIDHTKPSDLT [RPO21] | 2.85 ± 0.044 | 2.6 ± 0.042 | 2.69 ± 0.048 | 2.82 ± 0.041
18 | EPYARVSGDLNPIHVSR [FAS1] | 2.64 ± 0.14 | 2.92 ± 0.092 | 2.76 ± 0.086 | 2.83 ± 0.1
19 | SSQNNSELAPIEEHPTV [IRR1] | – | – | – | 3.14 ± 0.17
20 | NAAGNTPDATKIKAILE [RPP2A] | 3.13 ± 0.089 | 3.32 ± 0.092 | 2.99 ± 0.085 | 3.19 ± 0.054
21 | NIRSQLLSENRSEKSTT [SRP54] | 3.04 ± 0.06 | 3 ± 0.1 | 3.01 ± 0.055 | 3.13 ± 0.038
22 | IYKSIFNVVDVGVDQLS [YJL039C/NUP192] | 3.11 ± 0.055 | 2.92 ± 0.047 | 3.05 ± 0.041 | 3.05 ± 0.042
23 | LAKERQKLWLLECQLFP [SSN8] | 2.06 ± 0.057 | 1.85 ± 0.052 | 1.47 ± 0.1 | 2.05 ± 0.047
24 | RGMLGLLEPPAKELQGI [RPO31] | 2.08 ± 0.18 | 1.72 ± 0.18 | 3.28 ± 0.096 | 3.23 ± 0.16
25 | YPFVTNDDIEWMLSICV [YJR042W/NUP85] | 2.29 ± 0.083 | 2.56 ± 0.061 | 2.67 ± 0.059 | 2.68 ± 0.058
26 | KTTDHLFDAAFYMKKDA [RPO31] | 3 ± 0.075 | 3.21 ± 0.071 | 3.21 ± 0.05 | 3.05 ± 0.054

Row | Sequence | protein stability index (doa10∆) | protein stability index (pdr5∆) | protein stability index (san1∆) | protein stability index (ubr1∆)
27 | IGVVSLTNGVTEHVRQN [RRP6] | 3.29 ± 0.14 | 3.42 ± 0.11 | 3.32 ± 0.099 | 3.33 ± 0.063
28 | GFNSIWKIPQNDIPQTE [SSN2] | 3.09 ± 0.19 | 3.28 ± 0.28 | 3.18 ± 0.15 | 3.25 ± 0.076
29 | FDDNDSGNNYNDINISS [MED2] | 3.08 ± 0.037 | 3.19 ± 0.039 | 3.05 ± 0.038 | 3.151 ± 0.028
30 | GASTGNANTGFSFGGTQ [YGL172W/NUP49] | 2.06 ± 0.067 | 2.12 ± 0.054 | 1.58 ± 0.097 | 2.33 ± 0.063
31 | RDALRNIKNTNEEATPI [RRP6] | 2.76 ± 0.07 | 2.99 ± 0.081 | 2.86 ± 0.06 | 2.94 ± 0.064
32 | SAVKPRPLKLERGFACI [FAS1] | 2.16 ± 0.092 | 2.36 ± 0.064 | 2.06 ± 0.082 | 2.42 ± 0.071
33 | LDEDDTNDGIERYSDKY [RPC31] | 3.32 ± 0.14 | 3.4 ± 0.12 | 3.22 ± 0.11 | 3.26 ± 0.074
34 | LQIVNQLPANMVHLYSI [RPC17] | 1.85 ± 0.043 | 1.9 ± 0.045 | 1.67 ± 0.068 | 1.79 ± 0.039
35 | LSKFFFFIFVFNFVLLG [COB] | 1.42 ± 0.13 | 1.19 ± 0.12 | 1.09 ± 0.25 | 1.22 ± 0.15
36 | TYLNEVLEKDAAIVKKY [YGR119C/NUP57] | 3.27 ± 0.11 | 3.37 ± 0.093 | 2.99 ± 0.076 | 3.08 ± 0.069
37 | NNNNTTTTTTTTNNNNT [SWI1] | 3.07 ± 0.031 | 2.68 ± 0.032 | 3.363 ± 0.023 | 3.128 ± 0.02
38 | VEETEVPTVPPSQSEEQ [MED4] | 2.73 ± 0.079 | 2.69 ± 0.1 | 2.43 ± 0.13 | 2.74 ± 0.055
39 | SLVNSYIIDSPQPSSIN [COB] | 1.51 ± 0.085 | 1.59 ± 0.08 | 1.64 ± 0.15 | 1.32 ± 0.081
40 | LLTNFHGMDFTTDKLRS [RPS1A] | 2.52 ± 0.1 | 3.02 ± 0.084 | 2.84 ± 0.097 | 2.81 ± 0.077
41 | EARINELLSSLEGKGSL [RPP2B] | 2.74 ± 0.12 | 2.79 ± 0.099 | 2.91 ± 0.047 | 3.2 ± 0.077
42 | LQAQDRAHRIGQKNEVR [SNF2] | 3 ± 0.065 | 3.17 ± 0.077 | 2.86 ± 0.073 | 3.18 ± 0.063
43 | VGKQIVNIPSFMVRLDS [RPS9A] | 2.59 ± 0.099 | 2.69 ± 0.12 | 2.42 ± 0.18 | 2.62 ± 0.096
44 | DVFTINPHQKDQLIISS [YML103C/NUP188] | 1.56 ± 0.18 | 2.19 ± 0.19 | 1.62 ± 0.24 | 2.74 ± 0.24
45 | QIILAYIKYNILLTSIS [SRP68] | 1.29 ± 0.08 | 1.25 ± 0.074 | 1.12 ± 0.28 | 1.18 ± 0.15
46 | FRFDSIQRETLLPTNNG [GRR1] | 2.59 ± 0.047 | 2.67 ± 0.053 | 2.69 ± 0.04 | 2.92 ± 0.033
47 | ELSNELSRLSTASKIIV [MED1] | 2.68 ± 0.087 | 2.55 ± 0.089 | 2.72 ± 0.097 | 3.26 ± 0.077
48 | NRANVSKDELREKLAEV [RPS24A] | 3.53 ± 0.089 | 3.24 ± 0.11 | 3.37 ± 0.072 | 3.28 ± 0.088
49 | YGTRPLVLPPVVTSSVA [SNF2] | 2.04 ± 0.086 | 2.06 ± 0.071 | 1.76 ± 0.12 | 1.94 ± 0.051
50 | LHKNFESENFKIIALQP [RGR1] | 2.56 ± 0.076 | 2.62 ± 0.078 | 2.7 ± 0.06 | 2.58 ± 0.073
51 | KYKSNTNNMEKIIEDLR [SMC2] | 3.21 ± 0.061 | 3.23 ± 0.055 | 3.23 ± 0.034 | 3.2 ± 0.034
52 | CAACHSLDRVAWRTLVG [CYT1] | 1.29 ± 0.052 | 1.32 ± 0.047 | 1.34 ± 0.1 | 1.26 ± 0.042
